Results reported in US20220112244A1 (DOMPE FARMACEUTICI S P A, published 2022).

T1: mouse IL-17A (mouse, UniProt Q62386 26-158)
T1 construct: also called mIL-17 Å; mIL17
T1 sequence (looked up): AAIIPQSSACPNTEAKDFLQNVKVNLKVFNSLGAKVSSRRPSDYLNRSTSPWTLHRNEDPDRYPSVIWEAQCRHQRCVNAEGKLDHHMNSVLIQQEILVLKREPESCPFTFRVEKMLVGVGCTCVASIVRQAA

B1: peptide of SEQ ID NO: 12 (peptide)
peptide: Ac-IHVTIPADLWDWINE-NH2
B2: peptide of SEQ ID NO: 8 (peptide)
peptide: Ac-IHVTIPADLWDWVNK-NH2
B3: peptide of SEQ ID NO: 39 (peptide)
peptide: Ac-VPGDGVMVTIPADLYEWIEE-NH2
B4: peptide of SEQ ID NO: 37 (peptide)
peptide: Ac-VMVTIPADLYEWIEEVPGAGVPGAG-NH2
B5: peptide of SEQ ID NO: 14 (peptide)
peptide: Ac-IHVTIPADLWDWVRR-NH2
B6: peptide of SEQ ID NO: 2 (peptide)
peptide: Ac-VHVTIPADLWDWINK-NH2
notes: HAP with Ile 1 replaced by Val
B7: peptide of SEQ ID NO: 10 (peptide)
peptide: Ac-IHVTIPADLWDWINR-NH2
B8: peptide of SEQ ID NO: 4 (peptide)
peptide: Ac-VMVTIPADLWDWINK-NH2
B9: peptide of SEQ ID NO: 40 (peptide)
peptide: Ac-VMVTIPADLYEWIEEVPGDG-NH2
B10: peptide of SEQ ID NO: 7 (peptide)
peptide: Ac-IHVTIPADLYEWINK-NH2
modifications: not fully specified
B11: High Affinity Peptide (HAP), peptide of SEQ ID NO: 1 (peptide)
peptide: Ac-IHVTIPADLWDWINK-NH2

Target: T2, IL-17A (agonist in the IL-17RA/IL17RC dimerization assay) (UniProt Q16552 24-155)
Experiment: cell-based or functional assay

T2 sequence (Q16552 24-155 limits assumed): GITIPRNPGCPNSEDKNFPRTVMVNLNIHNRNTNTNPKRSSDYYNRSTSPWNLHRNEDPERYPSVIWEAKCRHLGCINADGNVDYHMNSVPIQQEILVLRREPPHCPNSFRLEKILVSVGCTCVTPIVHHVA

Binder	IC50 in IL-17RA/IL7RC dimerization assay [nM]
B1	< 200
B2	< 200
B3	< 200
B4	< 200
B5	< 400
B6	< 200
B7	< 400
B8	< 100
B9	< 200

Target: T1, mouse IL-17A
Experiment: SPR on immobilised mouse IL-17A

Binder	fold affinity against SEQ ID NO: 1 [fold]
B6	28

Target: T2, IL-17A (agonist in the IL-17RA/IL17RC …)
Experiment: cell-based or functional assay
Remark: another data set of the same source

Binder	IC50, % inhibition of IL-17A-induced IL-17RA/IL17RC dimerization (PathHunter cytokine receptor assay) [nM]
B10	103
B1	118
B2	189
B3	158
B4	188
B5	380
B6	191
B7	263
B8	203
B9	240

Target: T1, mouse IL-17A
Experiment: SPR, mouse IL-17A amine-coupled to the chip (3000 RU), peptide 62.5-1000 nM as analyte, Scatchard analysis of RU at equilibrium

Binder	Kd [nM]
B11	3700
B6	130
